Data taken from US20030171565A1.

Legend:
[1] = target: protein zero related (PZR), tyrosine-phosphorylated (human) (UniProt O95297); assay: immuno-depletion of extracts of pervanadate-treated cells with anti-PZR, Western blot of the supernatants
[2] = target: protein zero related (PZR), tyrosine-phosphorylated (human) (UniProt O95297); assay: immuno-depletion of extracts of pervanadate-treated cells with anti-SHP-2, Western blot of the supernatants

protein zero related (PZR), tyrosine-phosphorylated (human), sequence (O95297 36-269 limits assumed): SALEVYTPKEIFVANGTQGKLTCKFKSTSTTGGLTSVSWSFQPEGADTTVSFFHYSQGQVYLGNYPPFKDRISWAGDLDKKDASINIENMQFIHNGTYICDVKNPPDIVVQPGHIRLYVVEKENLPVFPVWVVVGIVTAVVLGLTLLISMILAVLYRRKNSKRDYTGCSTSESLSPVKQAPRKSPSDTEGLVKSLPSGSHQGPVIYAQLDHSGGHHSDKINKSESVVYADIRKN

removal of SHP-2 from the extracts on immuno-depletion of PZR [1]: 50%
loss of PZR from the extracts on immuno-depletion of SHP-2 [2]: > 90%
Substance: tyrosine phosphatase SHP-2, native full-length form (from UniProt Q06124 2-593) (enzyme)
